No end group written: not given here. *: point of attachment. Crotonyl(E) = C/C=C/C(=O)*
T1: Taf14 YEATS domain, Taf14 (1-132), uniformly 15N-labeled (yeast, UniProt P35189 1-132)
T1 sequence (looked up): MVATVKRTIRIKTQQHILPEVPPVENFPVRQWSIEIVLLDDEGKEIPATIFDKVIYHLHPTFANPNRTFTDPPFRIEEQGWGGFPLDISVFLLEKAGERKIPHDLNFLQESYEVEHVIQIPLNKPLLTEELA

T2: Taf14 YEATS domain (residues 1-137) (yeast, UniProt P35189 1-137)
T2 sequence (looked up): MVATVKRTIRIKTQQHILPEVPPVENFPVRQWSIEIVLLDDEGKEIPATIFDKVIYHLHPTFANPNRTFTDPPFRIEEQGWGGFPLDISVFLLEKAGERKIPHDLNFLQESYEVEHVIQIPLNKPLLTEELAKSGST


Key:
[1] = biological target: Taf14 YEATS domain (construct of the fluorescence assay) (yeast) (UniProt P35189); assay: other fluorescence titration
[2] = biological target: T1, Taf14 YEATS domain, Taf14 (1-132), …; assay: NMR titration
[3] = biological target: T2, Taf14 YEATS domain (residues 1-137); assay: crystal structure

Kd [1] | binding result [2] | binding result [3] | Molecule
9.5 µM |  |  | H3K9cr5-13 peptide (residues 5-13 of H3, crotonylated at lysine 9) (from UniProt P61830 6-14)
 | binds | binds | QTARK(Crotonyl(E))STGG (peptide, UniProt P61830 6-14, looked up) [H3K9cr5-13 peptide (residues 5-13 of H3, crotonylated at lysine 9)]
 | binds |  | QTARK(Ac)STGG (peptide, UniProt P61830 6-14, looked up) [H3K9ac5-13 peptide (residues 5-13 of H3, acetylated at lysine 9)]

From article PMC4871749 (Nature chemical biology, 2016)
